From patent US20190241648A1 (STATEN BIOTECHNOLOGY B V, published 2019)
Ends that are not written are not given here.

Key:
Experiment in all cases: peptide microarray
ApoC3 peptide … F47R = target: T1, ApoC3 peptide … F47R (human, also: cyclic constrained)
T1 peptide: ARGWVTDGRSSLK
Outline: (§1)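 Peptide microarrays of ApoC3-derived peptides incubated with antibody samples, then stained with goat anti-human IgG (Fc) DyLight680 (1:5000) and anti-HA DyLight800 (1:2000) control. Read-out by fluorescence scanning at intensities 7/7 (red/green); a secondary-only pre-stain checked background, HA frame peptides served as quality control.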

ApoC3 peptide … F47Y = target: T2, ApoC3 peptide … F47Y (human, also: cyclic constrained)
T2 peptide: ARGWVTDGYSSLK
Outline: as §1

ApoC3 peptide … R40H = target: T3, ApoC3 peptide … R40H (human, not fully specified (bridges); also: cyclic constrained)
T3 peptide: AHGWVTDGFSSLK
Outline: as §1

ApoC3 peptide … D45E = target: T4, ApoC3 peptide … D45E (human, not fully specified (bridges); also: cyclic constrained)
T4 peptide: ARGWVTEGFSSLK
Outline: as §1

ApoC3 peptide … R40A = target: T5, ApoC3 peptide … R40A (human, not fully specified (bridges); also: cyclic constrained)
T5 peptide: AAGWVTDGFSSLK
Outline: as §1

ApoC3 peptide … R40W = target: T6, ApoC3 peptide … R40W (human, thioether (positions not given here); also: cyclic constrained)
T6 peptide: AWGWVTDGFSSLK
Outline: as §1

ApoC3 peptide … W42H = target: T7, ApoC3 peptide … W42H (human, not fully specified (bridges); also: cyclic constrained)
T7 peptide: ARGHVTDGFSSLK
Outline: as §1

ApoC3 peptide … V43D = target: T8, ApoC3 peptide … V43D (human, not fully specified; cyclic constrained)
T8 peptide: ARGWDTDGFSSLK
Outline: as §1

ApoC3 peptide … D45G = target: T9, ApoC3 peptide … D45G (human, not fully specified (bridges); also: cyclic constrained)
T9 peptide: ARGWVTGGFSSLK
Outline: as §1

ApoC3 peptide … S48G = target: T10, ApoC3 peptide … S48G (human, not fully specified; cyclic constrained)
T10 peptide: ARGWVTDGFGSLK
Outline: as §1

ApoC3 peptide … K51F = target: T11, ApoC3 peptide … K51F (human, thioether (positions not given here); also: cyclic constrained)
T11 peptide: ARGWVTDGFSSLF
Outline: as §1

ApoC3 peptide … L50S = target: T12, ApoC3 peptide … L50S (human, not fully specified (bridges); also: cyclic constrained)
T12 peptide: ARGWVTDGFSSSK
Outline: as §1

ApoC3 peptide … W42G = target: T13, ApoC3 peptide … W42G (human, not fully specified (bridges); also: cyclic constrained)
T13 peptide: ARGGVTDGFSSLK
Outline: as §1

ApoC3 peptide … A39Y = target: T14, ApoC3 peptide … A39Y (human, not fully specified (bridges); also: cyclic constrained)
T14 peptide: YRGWVTDGFSSLK
Outline: as §1

ApoC3 peptide … V43S = target: T15, ApoC3 peptide … V43S (human, not fully specified (bridges); also: cyclic constrained)
T15 peptide: ARGWSTDGFSSLK
Outline: as §1

ApoC3 peptide … S49T = target: T16, ApoC3 peptide … S49T (human, not fully specified (bridges); also: cyclic constrained)
T16 peptide: ARGWVTDGFSTLK
Outline: as §1

ApoC3 peptide … W42E = target: T17, ApoC3 peptide … W42E (human, not fully specified (bridges); also: cyclic constrained)
T17 peptide: ARGEVTDGFSSLK
Outline: as §1

ApoC3 peptide … A39L = target: T18, ApoC3 peptide … A39L (human, cyclic constrained)
T18 peptide: LRGWVTDGFSSLK
Outline: as §1

ApoC3 peptide … R40V = target: T19, ApoC3 peptide … R40V (human, thioether (positions not given here); also: cyclic constrained)
T19 peptide: AVGWVTDGFSSLK
Outline: as §1

ApoC3 peptide … V43Y = target: T20, ApoC3 peptide … V43Y (human, not fully specified (bridges); also: cyclic constrained)
T20 peptide: ARGWYTDGFSSLK
Outline: as §1

ApoC3 peptide … F47D = target: T21, ApoC3 peptide … F47D (human, not fully specified (bridges); also: cyclic constrained)
T21 peptide: ARGWVTDGDSSLK
Outline: as §1

ApoC3 peptide … S49G = target: T22, ApoC3 peptide … S49G (human, cyclic constrained)
T22 peptide: ARGWVTDGFSGLK
Outline: as §1

ApoC3 peptide … T44W = target: T23, ApoC3 peptide … T44W (human, not fully specified (bridges); also: cyclic constrained)
T23 peptide: ARGWVWDGFSSLK
Outline: as §1

ApoC3 peptide … L50R = target: T24, ApoC3 peptide … L50R (human, not fully specified (bridges); also: cyclic constrained)
T24 peptide: ARGWVTDGFSSRK
Outline: as §1

ApoC3 peptide … V43I = target: T25, ApoC3 peptide … V43I (human, not fully specified; cyclic constrained)
T25 peptide: ARGWITDGFSSLK
Outline: as §1

ApoC3 peptide … L50I = target: T26, ApoC3 peptide … L50I (human, not fully specified; cyclic constrained)
T26 peptide: ARGWVTDGFSSIK
Outline: as §1

ApoC3 peptide … L50W = target: T27, ApoC3 peptide … L50W (human, not fully specified (bridges); also: cyclic constrained)
T27 peptide: ARGWVTDGFSSWK
Outline: as §1

ApoC3 peptide … T44M = target: T28, ApoC3 peptide … T44M (human, not fully specified (bridges); also: cyclic constrained)
T28 peptide: ARGWVMDGFSSLK
Outline: as §1

ApoC3 peptide … V43A = target: T29, ApoC3 peptide … V43A (human, not fully specified; cyclic constrained)
T29 peptide: ARGWATDGFSSLK
Outline: as §1

ApoC3 peptide … F47P = target: T30, ApoC3 peptide … F47P (human, not fully specified (bridges); also: cyclic constrained)
T30 peptide: ARGWVTDGPSSLK
Outline: as §1

% of binding to wild-type peptide (ApoC3 peptide … F47R): 0% | % of binding to wild-type peptide (ApoC3 peptide … F47Y): 67.7% | % of binding to wild-type peptide (ApoC3 peptide … R40H): 44.4% | % of binding to wild-type peptide (ApoC3 peptide … D45E): 40% | % of binding to wild-type peptide (ApoC3 peptide … R40A): 50.1% | % of binding to wild-type peptide (ApoC3 peptide … R40W): 38.8% | % of binding to wild-type peptide (ApoC3 peptide … W42H): 48.6% | % of binding to wild-type peptide (ApoC3 peptide … V43D): 0% | % of binding to wild-type peptide (ApoC3 peptide … D45G): 2.16% | % of binding to wild-type peptide (ApoC3 peptide … S48G): 3.7% | % of binding to wild-type peptide (ApoC3 peptide … K51F): 6.24% | % of binding to wild-type peptide (ApoC3 peptide … L50S): 0% | % of binding to wild-type peptide (ApoC3 peptide … W42G): 107% | % of binding to wild-type peptide (ApoC3 peptide … A39Y): 40.5% | % of binding to wild-type peptide (ApoC3 peptide … V43S): 1.54% | % of binding to wild-type peptide (ApoC3 peptide … S49T): 6.21% | % of binding to wild-type peptide (ApoC3 peptide … W42E): 98.5% | % of binding to wild-type peptide (ApoC3 peptide … A39L): 77.5% | % of binding to wild-type peptide (ApoC3 peptide … R40V): 57.5% | % of binding to wild-type peptide (ApoC3 peptide … V43Y): 230% | % of binding to wild-type peptide (ApoC3 peptide … F47D): 0% | % of binding to wild-type peptide (ApoC3 peptide … S49G): 0% | % of binding to wild-type peptide (ApoC3 peptide … T44W): 0% | % of binding to wild-type peptide (ApoC3 peptide … L50R): 0% | % of binding to wild-type peptide (ApoC3 peptide … V43I): 41% | % of binding to wild-type peptide (ApoC3 peptide … L50I): 9.47% | % of binding to wild-type peptide (ApoC3 peptide … L50W): 17.7% | % of binding to wild-type peptide (ApoC3 peptide … T44M): 0% | % of binding to wild-type peptide (ApoC3 peptide … V43A): 26.9% | % of binding to wild-type peptide (ApoC3 peptide … F47P): 0%
B1: anti-ApoC3 antibody 14C7 (antibody, V domains shown)
VH: QVQVQESGPGLVKPSQTLSLTCTVSGGSITTNSYYWSWIRQPPGKGLEWMGAIDYSGDTYYSPSLKSRTSISRDTSKNQFTLQLTSVTPEDTAVYYCVSRIPTGEYWGQGTQVTVSS
VL: QTVVTQEPSLSVSPGGTVTLTCGLNSGSVTSSNYPDWYQQTPGQAPRLLIYNTNSRHSGVPSRFSGSISGNKAALTITGAQPEDEADYYCALYMGSDSVVFGGGTHLTVL
notes: it was detected with goat anti-human IgG (Fc); also called mAb 14C7; llama antibody 14C7
